{
  "source": "paper PMC6531875",
  "target": "Csk (UniProt P41240)",
  "test": "anti-Flag co-IP, anti-Myc blot",
  "settings": "reference: Myc-Cbp wild type; sites Y317",
  "data": [
    {"substance": "Cbp (Csk binding protein, Cbp/PAG1) (from UniProt Q9NWQ8) Myc-Cbp Y317F", "values": [
      {"measurement": "binding against the reference", "result": "weaker"}
    ]}
  ]
}
